Laboratory results published in patent US20240376226A1.

B1: Phage clone J466C02 displaying Peptide-25 (peptide, not shown: large carriers)
peptide: GGQGCGTIADPEPHCW
B2: Phage clone J467F08 displaying Peptide-27 (peptide, not shown: large carriers)
peptide: GGLCPINDWEPQDICW
B3: Phage clone J479B08 displaying Peptide-26 (peptide, not shown: large carriers)
peptide: GGNCHDPDIPAYVLCS
B4: Phage clone J465D07 displaying Peptide-23 (peptide, not shown: large carriers)
peptide: GGLGCNDIDPGEQCIV
B5: Phage clone J467D04 displaying Peptide-28 (peptide, not shown: large carriers)
peptide: GGLCMIGDWLPGDVCL
B6: Phage clone J465E03 displaying Peptide-21 (peptide, not shown: large carriers)
peptide: GGIQCHDPDLPSPCYI
B7: Phage clone J476C07 displaying Peptide-19 (peptide, not shown: large carriers)
peptide: GGDSVCADPEVPICEI
B8: Phage clone J466C07 displaying Peptide-24 (peptide, not shown: large carriers)
peptide: GGLECFDPEIPEAFCI
B9: Phage clone J465F09 displaying Peptide-22 (peptide, not shown: large carriers)
peptide: GGEWCLFDPDVPTCQD
B10: Phage clone J457A04 displaying Peptide-20 (peptide, not shown: large carriers)
peptide: GGMSDCGDPGVEICTH

The binders below were run against neutravidin (UniProt P02701) (assay: phage ELISA, neutravidin alone).
neutravidin, sequence (P02701 25-152): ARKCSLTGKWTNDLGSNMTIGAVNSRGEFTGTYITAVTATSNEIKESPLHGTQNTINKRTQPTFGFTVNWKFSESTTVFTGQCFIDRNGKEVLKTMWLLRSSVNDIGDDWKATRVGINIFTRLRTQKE

**Q.** B1 was tested. Which NAv bkgd did it give?
**A.** 0.061

**Q.** For B2, which NAv bkgd is on record?
**A.** 0.062

**Q.** How did the NAv bkgd turn out when B3 was run?
**A.** 0.084

**Q.** For B4, which NAv bkgd is on record?
**A.** 0.055

**Q.** With B5 as the binder, how does the NAv bkgd read?
**A.** 0.058

**Q.** Which NAv bkgd does the source give for B6 here?
**A.** 0.052

**Q.** Which NAv bkgd does the source give for B7 here?
**A.** 0.051

**Q.** B8 was tested. Which NAv bkgd did it give?
**A.** 0.053

**Q.** How did the NAv bkgd turn out when B9 was run?
**A.** 0.051

**Q.** How did the NAv bkgd turn out when B10 was run?
**A.** 0.092
